The record followed here is publication doi:10.1101/2024.07.18.604210.

The target in assay [1] is egSepF-CTD G163K (E. gallinarum). Kind of assay: AUC.
Assay [2] concerns the target saSepF-CTD G145K (S. aureus). Nature of the assay: AUC.

Regarding egSepF-CTD G163K (domain or fragment), the stoichiometry N – broadly, the number of molecules, sites or subunits per partner or assembly – in assay [1] stood at 2.
Consider saSepF-CTD G145K (domain or fragment), for which the stoichiometry N in assay [2] is 2.
